Key:
[1] = target: the molecule itself; assay: cryo-EM structure; ClC-3 alone, 3 mg/ml, no exogenous ligands, glyco-diosgenin, 50 mM Tris-HCl pH 8, 150 mM KCl, 2 mM DTT; C2 symmetry
[2] = target: the molecule itself; assay: cryo-EM structure; ClC-3 co-expressed and co-purified with T9A, 5 mg/ml, no exogenous ligands, glyco-diosgenin, 50 mM Tris-HCl pH 8, 150 mM KCl, 2 mM DTT; four classes by 3D classification

Protein	stoichiometry N [1]	stoichiometry N [2]
human ClC-3 purified alone (C-terminal mCerulean tag removed) (natural protein, human ClC-3 (P51790), the long isoform used for structural analysis (proton glutamate E339); The cloning of a C-terminally tagged ClC-3 is not described elsewhere in the methods; Residues of the PreScission linker may be left after cleavage; also called ligand-free human ClC-3; not shown: mCerulean, C-terminal, cleaved) MESEQLFHRGYYRNSYNSITSASSDEELLDGAGVIMDFQTSEDDNLLDGDTAVGTHYTMTNGGSINSSTHLLDLLDEPIPGVGTYDDFHTIDWVREKCKDRERHRRINSKKKESAWEMTKSLYDAWSGWLVVTLTGLASGALAGLIDIAADWMTDLKEGICLSALWYNHEQCCWGSNETTFEERDKCPQWKTWAELIIGQAEGPGSYIMNYIMYIFWALSFAFLAVSLVKVFAPYACGSGIPEIKTILSGFIIRGYLGKWTLMIKTITLVLAVASGLSLGKEGPLVHVACCCGNIFSYLFPKYSTNEAKKREVLSAASAAGVSVAFGAPIGGVLFSLEEVSYYFPLKTLWRSFFAALVAAFVLRSINPFGNSRLVLFYVEYHTPWYLFELFPFILLGVFGGLWGAFFIRANIAWCRRRKSTKFGKYPVLEVIIVAAITAVIAFPNPYTRLNTSELIKELFTDCGPLESSSLCDYRNDMNASKIVDDIPDRPAGIGVYSAIWQLCLALIFKIIMTVFTFGIKVPSGLFIPSMAIGAIAGRIVGIAVEQLAYYHHDWFIFKEWCEVGADCITPGLYAMVGAAACLGGVTRMTVSLVVIVFELTGGLEYIVPLMAAVMTSKWVGDAFGREGIYEAHIRLNGYPFLDAKEEFTHTTLAADVMRPRRNDPPLAVLTQDNMTVDDIENMINETSYNGFPVIMSKESQRLVGFALRRDLTIAIESARKKQEGIVGSSRVCFAQHTPSLPAESPRPLKLRSILDMSPFTVTDHTPMEIVVDIFRKLGLRQCLVTHNGRLLGIITKKDILRHMAQTANQDPASIMFN	2	–
human ClC-3 purified in complex with T9A (N-terminal mCerulean tag removed) (natural protein, human ClC-3 (P51790), the long isoform used for structural analysis (proton glutamate E339); Residues of the PreScission linker may be left on the N-terminus after cleavage; PtdIns(3,5)P2 co-purified with the complex; also called ClC-3/T9A; ClC-3/noT9A; not shown: mCerulean, N-terminal, cleaved) MESEQLFHRGYYRNSYNSITSASSDEELLDGAGVIMDFQTSEDDNLLDGDTAVGTHYTMTNGGSINSSTHLLDLLDEPIPGVGTYDDFHTIDWVREKCKDRERHRRINSKKKESAWEMTKSLYDAWSGWLVVTLTGLASGALAGLIDIAADWMTDLKEGICLSALWYNHEQCCWGSNETTFEERDKCPQWKTWAELIIGQAEGPGSYIMNYIMYIFWALSFAFLAVSLVKVFAPYACGSGIPEIKTILSGFIIRGYLGKWTLMIKTITLVLAVASGLSLGKEGPLVHVACCCGNIFSYLFPKYSTNEAKKREVLSAASAAGVSVAFGAPIGGVLFSLEEVSYYFPLKTLWRSFFAALVAAFVLRSINPFGNSRLVLFYVEYHTPWYLFELFPFILLGVFGGLWGAFFIRANIAWCRRRKSTKFGKYPVLEVIIVAAITAVIAFPNPYTRLNTSELIKELFTDCGPLESSSLCDYRNDMNASKIVDDIPDRPAGIGVYSAIWQLCLALIFKIIMTVFTFGIKVPSGLFIPSMAIGAIAGRIVGIAVEQLAYYHHDWFIFKEWCEVGADCITPGLYAMVGAAACLGGVTRMTVSLVVIVFELTGGLEYIVPLMAAVMTSKWVGDAFGREGIYEAHIRLNGYPFLDAKEEFTHTTLAADVMRPRRNDPPLAVLTQDNMTVDDIENMINETSYNGFPVIMSKESQRLVGFALRRDLTIAIESARKKQEGIVGSSRVCFAQHTPSLPAESPRPLKLRSILDMSPFTVTDHTPMEIVVDIFRKLGLRQCLVTHNGRLLGIITKKDILRHMAQTANQDPASIMFN	–	2
